According to patent US20180251524A1 (published 2018):
Values belong to the binder of their own block, whether it stands above or below them.

How the values were obtained:
1DD-Fn-v4 Monomers = assay: flow cytometry titration on cells; apparent
Clone 3.2.1 = assay: yeast display flow cytometry titration; estimated
Clone 3.2.17 = assay: yeast display flow cytometry titration; estimated
Clone 3.2.22 = assay: yeast display flow cytometry titration; estimated
Clone 3.2.16 = assay: yeast display flow cytometry titration; estimated
Clone 3.2.20 = assay: yeast display flow cytometry titration; apparent

Kd (1DD-Fn-v4 Monomers): 34.8 nM
B1: MCF-7 Cells (receptor)
chain: QEECVCENYKLAVNCFVNNNRQCQCTSVGAQNTVICSKLAAKCLVMKAEMNGSKLGRRAKPEGALQNNDGLYDPDCDESGLFKAKQCNGTSMCWCVNTAGVRRTDKDTEITCSERVRTYWIIIELKHKAREKPYDSKSLRTALQKEITTRYQLDPKFITSILYENNVITIDLVQNSSQKTQNDVDIADVAYYFEKDVKGESLFHSKKMDLTVNGEQLDLDPGQTLIYYVDEKAPEFSMQGLKAGVIAVIVVVVIAVVAGIVVLVISRKKRMAKYEKAEIKEMGEMHRELNA

Kd (Clone 3.2.1): 190 nM | Kd (Clone 3.2.17): 130 nM | Kd (Clone 3.2.22): 190 nM | Kd (Clone 3.2.16): 150 nM | Kd (Clone 3.2.20): 140 nM
B2: EpCAM (receptor)
chain: QEECVCENYKLAVNCFVNNNRQCQCTSVGAQNTVICSKLAAKCLVMKAEMNGSKLGRRAKPEGALQNNDGLYDPDCDESGLFKAKQCNGTSMCWCVNTAGVRRTDKDTEITCSERVRTYWIIIELKHKAREKPYDSKSLRTALQKEITTRYQLDPKFITSILYENNVITIDLVQNSSQKTQNDVDIADVAYYFEKDVKGESLFHSKKMDLTVNGEQLDLDPGQTLIYYVDEKAPEFSMQGLK
modifications: biotinylated (site not stated)
